Measured values: publication doi:10.1101/2023.06.13.544862 (bioRxiv, 2023)
One block for each binder: values may come before it. Ends that are not written are not given here. Me3 = trimethyl-lysine; Me2 = dimethyl-lysine

Key:
[1] = biological target: JMJD3 JmjC domain labelled for microscale thermophoresis (UniProt O15054 1339-1502, labeled with Protein Labeling kit RED-NHS); test: MST
[2] = biological target: GST-tagged EED, wild type (human, UniProt O75530 1-441); test: pull-down
Chain of GST-tagged EED, wild type (O75530 whole entry): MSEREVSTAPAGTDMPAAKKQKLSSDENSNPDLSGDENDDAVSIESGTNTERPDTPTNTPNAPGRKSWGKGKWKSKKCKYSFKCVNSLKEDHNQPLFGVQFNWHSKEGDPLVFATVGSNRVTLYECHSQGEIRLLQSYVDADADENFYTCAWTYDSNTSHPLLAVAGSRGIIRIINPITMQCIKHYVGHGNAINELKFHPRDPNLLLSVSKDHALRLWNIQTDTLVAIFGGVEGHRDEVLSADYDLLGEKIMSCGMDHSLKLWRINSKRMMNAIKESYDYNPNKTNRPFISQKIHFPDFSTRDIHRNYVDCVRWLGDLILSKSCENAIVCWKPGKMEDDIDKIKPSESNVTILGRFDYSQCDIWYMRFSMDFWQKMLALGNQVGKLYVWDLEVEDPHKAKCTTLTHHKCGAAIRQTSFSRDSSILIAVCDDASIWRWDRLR

Chain of JMJD3 JmjC domain labelled for microscale thermophoresis (O15054 1339-1502): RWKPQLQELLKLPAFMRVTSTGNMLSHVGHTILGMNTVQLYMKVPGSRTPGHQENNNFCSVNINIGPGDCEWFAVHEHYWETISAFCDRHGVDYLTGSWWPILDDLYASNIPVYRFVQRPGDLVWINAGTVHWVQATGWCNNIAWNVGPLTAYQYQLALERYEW

B2: NOP16 aa 25-32 peptide, tri-methylated K29 (peptide, UniProt Q9Y3C1 25-32, looked up)
peptide: NARRK(Me3)AAP
modifications: also: biotin
- Kd [1]: 32.1 ± 27.4 µM

B4: 6xHis-tagged NOP16 (natural protein, human, UniProt Q9Y3C1 1-178, looked up)
chain: MPKAKGKTRRQKFGYSVNRKRLNRNARRKAAPRIECSHIRHAWDHAKSVRQNLAEMGLAVDPNRAVPLRKRKVKAMEVDIEERPKELVRKPYVLNDLEAEASLPEKKGNTLSRDLIDYVRYMVENHGEDYKAMARDEKNYYQDTPKQIRSKINVYKRFYPAEWQDFLDSLQKRKMEVE
- binding result [2]: binds

B5: NOP16 aa 25-32 peptide, mono-methylated K29 (peptide, UniProt Q9Y3C1 25-32, looked up)
peptide: NARRK(Me)AAP
modifications: also: biotin
- Kd [1]: 347 ± 224 µM

The remaining binders from weak to strong by Kd [1], led by results:

- Kd [1]: 306 ± 101 µM
B3: NOP16 aa 25-32 peptide, di-methylated K29 (peptide, UniProt Q9Y3C1 25-32, looked up)
peptide: NARRK(Me2)AAP
modifications: also: biotin

- Kd [1]: 103 ± 65.2 µM
B1: NOP16 aa 25-32 peptide, unmethylated K29 (peptide, UniProt Q9Y3C1 25-32, looked up)
peptide: NARRKAAP
modifications: also: biotin
